# According to the nanobody polyreactivity screen of Harvey et al. (2022):
# Assay: yeast display, Sf9 membrane polyspecificity reagent, FACS + sequencing; frameworks hold sequencing errors
# Outline: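 Nanobodies came from a synthetic yeast display library in Saccharomyces cerevisiae BJ5465, induced with galactose for 36–48 hours and stained for 1 hour at 4 °C with 10% biotinylated, detergent-solubilized Sf9 membrane reagent. Cells were enriched on streptavidin microbeads and then FACS-sorted, with low and high (top ~1%) gates set on anti-HA fluorescence for expression and streptavidin fluorescence for reagent binding. Each polyreactivity label reflects the gate a clone came from. Genes were amplified by colony PCR, sequenced by MiSeq 2 × 250 and filtered by CDR length.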
row,Sequence,polyreactivity (PSR sort gate)
1,QEQLQESGGGLVQAGGSLRLSCAASGIIFDWFFMGWYRQAPGREREFVAAITYGATTNYADSVKGRFTISRDNGKNTVYLQMNSLKPEDTAVYYCAAVRGRGGTHAYWGQGTQVTVSG,low polyreactivity
2,QEQLQESGGGQVQAGGSLLLSCAASGNIIRYYYMGWYRQAQGKVRELVAAITYGTSTNYADSVKGRFTISRDNAKNTVYLQMNSLKPEDTAVYYCAVDVNYGDPLDNWGEGTQVTVSS,high polyreactivity
3,QEQLQESGSGLVQAGGSLRLSCAASGNIFHDWVMGWYRQAPGKERELVAAISPGAITYYADSVKGRFTISRDNAKNTVYLQTNSLKPEDTAVYYCAAYYIVEYLHGYWGQGTRVTVSS,low polyreactivity
4,QEQLQESGSGLVQAGGSLRLSCAASGNIFQDWVMGWYRQAPGKERELVAAISHGAITYYADSVKGRFTISRDNAKYTVYLQTNSLKREDTAVYYCAAYYIVEYLHGYWGQGTRVTVSS,low polyreactivity
5,QEQLQESGSGLVQAGGSLRLSCAASGNIFQDWVRGWYRQAPGKERELVAAISPGAITYDADSVKGRFTISRDNAKNTVYLQTNSLNPEDTAVYYCAAYYIVEYLQGYWGQGTRVTVSS,low polyreactivity
6,QEQLQESGVGLVQAGGSLRLICEASGSISQAWYMGWYRQAPGKERELVAAINVGAITYYADSVKGRFSISRDNAKNTVYLPMNSLTPDDTAVYYCAVDQYSEAYYDYWGQGTQATVSS,high polyreactivity
7,QEQLQGSGGGLAQAGDSLRLSCAASGTIFSEYNNGLVSPGAGQRTRTCCRYWCWGNTYYADSAKGRFTTIRDNAKNTVYLQKNSLKPEDTAVYYCAFNRPYPSRHIYRGQGTQVTVSS,high polyreactivity
8,QEQLVESGGGFVQAGGSLRLSCAASGRIFTGYAMGWYRQAPGKERELVAVITWSTGSSTYYADSVKGRFTISRDNAKNTVYLQMNSLNPEDTAVYYFNAAYKIDFTYDTYDYWGQGTQVTVSS,low polyreactivity
9,QEQLVESGGGLVQAGGSLGLSCAASGLTFSYYAMRWYRQAPGKERELVAAIDYSGGTTYADSVKGRFTISRDNAKNTVYLQMNSLKPEDTAVYYCAAAPDGWFASGDEYWGQGTQVTVSS,high polyreactivity
10,QEQLVESGRGLVQAGGSLRVSCAASGSIFSVNGMGWYRQAPGKARELVAAIRRSGGSTYYADSVKGRFTISRDHAKNTVNLQRNSLKPEDTAVYYCAAPVRQSSYTRYDAWGQGTQVTVSS,high polyreactivity
11,QFHLVDSGGGLVQAGCSLRLSCAASGFTFNSYAMGWYRQAPGKERELVASITRGGGSTYYADSVKGRFTISRDNAKNTVYLKMNSLKPEDTAVYYCTARVRRRGGSFNYWGQGTQVIVSS,high polyreactivity
12,QFHLVESGGGLLQAGGSLRLSCAASGRIFYANDMGWYRQAPGKERELLAAISQSGGSTFYADSVKGRFTISRDNAKNTVYLQMNSLKPEDTAVYYCATDYYGPVYDLDYDYWGQGTQVSVSS,low polyreactivity
13,QFHLVESGGRLVQAGGSLRLSCAASGRIFYYYVMGWYRQAPGKERELVAVIDWSGGSTYYADSVKGRFTISRDNAKNTVYVQMNSLKPEDTAVYYCAKVWLNFSLAYEDYDYWGQGTQVTVSS,low polyreactivity
14,QFKLVESGGGLVQAGGSLRLICAASGITLNRNAMGRYRQAPGKEMELVARISRRGGTTYYADSVKGRFTISRDKAKNTVYLQMNSLKPEDTAVYYCNAGPYGGNPFDYWGQGTQVTVSS,high polyreactivity
15,QFKLVESGGGLVQAGGSLRLSCAASGSIVERKTMGWYRQAPGKEMEFVAGITQSGGRTYYADSVKGRFTISRDNAKNTVYLQMNSLKPEDTAVYYCATKTPRAWSYGYWGQGTQVTVSS,high polyreactivity
16,QFQHVESGAGLVHAGGCLRLSCSASGRTFFYNAMGWYRQPPGKEREFVASITWSGSTYYADSVKGRFTISRDNAKNTVYLLMNRLKQEDTAVYYCAADRQGGLVIDSGGYDYWGQGTQVTVSS,low polyreactivity
17,QFQHVESGGGLVQAGGSLRLSCAASGRTFGPYAMGCYIQAPGKERELVAAISSGGRTYYADSVKGRFTISRDNAKNTVYFQMNSLKPEDTAVYYCAATYGPSRYRYDYWGQGTQVTVSS,high polyreactivity
